The values below come from patent publication US20250066451A1.

Assay [1] has as its target IL-1R-I on cells (TF-1 cells, NHDF cells, human whole blood) (human) (UniProt P14778). Nature of the assay: cell-based or functional assay.
Assay [2] deals with human IL-1R-I on Normal Human Dermal Fibroblasts (NHDF) cells (human) (UniProt P14778). As to the kind of experiment: cell-based or functional assay.
Sequence of human IL-1R-I on Normal Human Dermal Fibroblasts (NHDF) cells (human) (P14778 18-569): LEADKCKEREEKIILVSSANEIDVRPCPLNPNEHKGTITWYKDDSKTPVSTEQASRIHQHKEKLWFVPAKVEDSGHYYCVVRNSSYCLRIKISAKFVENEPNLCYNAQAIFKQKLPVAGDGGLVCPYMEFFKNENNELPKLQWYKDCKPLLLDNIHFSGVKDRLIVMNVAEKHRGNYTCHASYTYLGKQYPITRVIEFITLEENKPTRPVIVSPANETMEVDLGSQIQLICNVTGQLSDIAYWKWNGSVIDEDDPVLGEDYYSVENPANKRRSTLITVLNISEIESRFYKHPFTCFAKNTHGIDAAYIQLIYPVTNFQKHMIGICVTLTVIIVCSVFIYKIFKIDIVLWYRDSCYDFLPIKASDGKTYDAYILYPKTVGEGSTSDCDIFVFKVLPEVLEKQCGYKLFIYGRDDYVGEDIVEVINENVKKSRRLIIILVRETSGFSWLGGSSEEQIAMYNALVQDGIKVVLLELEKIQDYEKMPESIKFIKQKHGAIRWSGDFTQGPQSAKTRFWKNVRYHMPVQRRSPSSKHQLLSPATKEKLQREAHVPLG

Sequence of IL-1R-I on cells (TF-1 cells, NHDF cells, human whole blood) (human) (P14778 18-569): as above

Turning to “anakinra (Kineret, Sobi) (from UniProt P18510 26-177) (ligand)”, in assay [1], the IC50, inhibition of IL-1B induced proliferation of TF-1 cells is 0.05 nM; the median IC50, IL-1B induced IL-6 release in human whole blood amounted to 0.31 nM; the median IC50, IL-1B induced IL-6 release in human whole blood (legend of FIG. 3) amounted to 0.3 nM.
For the substance “anakinra (from UniProt P18510 26-177) (ligand)”, the IC50 (pM), inhibition of IL-1B induced IL-6 release in NHDF cells in assay [2] turned out to be 70 pM.
